This is an account of results in US20100080806A1 (INSTITUTE OF BASIC MEDICAL SCIENCES OF CHINESE ACADEMY OF …, published 2010).

Experiment [1] concerns the target T1, recombinant human DR5 extracellular domain protein expressed in E. coli (human, UniProt O14763 56-210).
T1 construct: extracellular domain; also called death receptor 5; TRAIL-R2
The experiment can be described thus: ELISA on plate-coated recombinant DR5 extracellular domain, single-site fit (GraphPad). The method, then: (§1) ELISA plates (Costar, USA) were coated with recombinant human DR4 or DR5 extracellular domain protein expressed in E. coli over night, blocked with 5% nonfat milk at room temperature for two hours. […] The absorbency at 492 nm was measured on a microtiter reader of enzyme-labelled machine, Wellscan MK3 (Thermo Labsystems, Finland).
Background: ELISA stands for enzyme-linked immunosorbent assay.

Experiment [2] concerns the target T2, recombinant human DR4 extracellular domain protein expressed in E. coli (human, UniProt O00220 24-239).
T2 construct: extracellular domain; also called death receptor 4; TRAIL-R1
Description: ELISA, plate coated with recombinant DR4 extracellular domain. Here is the method:
as §1

As a reminder, the Kd is the constant that tells how readily two partners part at equilibrium.

T2 sequence (O00220 24-239): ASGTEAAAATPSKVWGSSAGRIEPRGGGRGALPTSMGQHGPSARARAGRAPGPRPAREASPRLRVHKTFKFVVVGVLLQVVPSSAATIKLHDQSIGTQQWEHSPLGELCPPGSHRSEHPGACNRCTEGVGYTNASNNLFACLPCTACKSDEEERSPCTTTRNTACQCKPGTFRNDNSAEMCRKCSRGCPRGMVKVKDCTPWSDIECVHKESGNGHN

B1: monoclonal antibody AD5-10 against human TRAIL receptor DR5 (antibody, IgG3, V domains shown)
VH: QIQLVQSGPELKKPGETVKISCKASGYTFTDFSMNWVKQAPGKGLKWMGWINTETGEPTYADDFKGRFALSMETSASTAYLQINNLKNEDTATYFCVRIDYWGQGTTLTVSS
VL: DVVMTQTPLSLPVSLGDQASISCRSSQSLVHSNGNTYLHWYLQKPGQSPKLLIYKVSNRFSGVPDRFSGSGSGTDFTLKISRVEAEDLGVYFCFQSTHVPHTFGGGTKLEIKR
notes: Murine hybridoma antibody (CGMCC 1192), subtype IgG3 kappa; also called anti-human TRAIL receptor DR5 mAb; mAb DR5
As to B1, the Kd in experiment [1] came out at 0.3 nM. Further, in experiment [2], the binding result was “no binding”.
